Assay results reported in paper PMC3826083.
pKd: −log10 of the molar value.

What was measured:
mCherry-R125I = test: fluorescence polarisation
mCherry-R125I/T127V = test: fluorescence polarisation

Substance	pKd (mCherry-R125I)	pKd (mCherry-R125I/T127V)
mCherry-R125I	4.46	–
mCherry-R125I/T127V	–	7.04
